# Measurements: US20200048328A1 (Bristol-Myers Squibb, published 2020)
# B1: PKE2 Adnectin 2629_E06 (designed binder)
# chain: MGVSDVPRDLEVVAATPTSLLISWDAPAVTVRYYRITYGREVQKYSDLGPLYIYQEFTVPGSKSTATISGLKPGVDYTITVYAVTGSGESPASSKPISINYRTEIDKPSQHHHHHH
# notes: 10Fn3 domain with modified CD loop; the entry includes the His6 tail; also called ADX_2629_E06
# Experiments:
# domain I of HSA = molecular target: T1, domain I of HSA (human, UniProt P02768 25-221, limits assumed); experiment: SPR on HSA domains
# T1 construct: domain: I; also called HSA domain I
# domain III of HSA = molecular target: T2, domain III of HSA (human, UniProt P02768 405-609, limits assumed); experiment: SPR on HSA domains
# T2 construct: domain: III; also called HuSA domainIII
# human serum albumin [1] = molecular target: T3, human serum albumin (human, UniProt P02768 25-609); experiment: SPR, albumin immobilized
# T3 construct: immobilized on chips or coated on plates elsewhere; also called HSA; HuSA
# Method: (§1) To determine the kinetics of binding to human, rhesus, and mouse serum albumin, as well as whether binding was retained at both physiological and endosomal pHs, the respective serum albumins were immobilized on a Biacore CMS chip to a surface density of ˜1200 RU using standard NHS/EDC coupling. […] Kinetic measurements were carried out using a 3 min association and 6-10 min dissociation phase. Kinetic traces of reference-subtracted sensorgrams were fit to a 1:1 binding model using the Biaevaluation software.
# (§2) In addition, binding to albumin was carried out under various pH conditions ranging from pH 5.5 to pH 7.4.
# rhesus serum albumin [2] = molecular target: T4, rhesus serum albumin (rhesus, UniProt Q28522 17-600); experiment: SPR, albumin immobilized
# T4 construct: also called RhSA; Rh-SA
# T4 sequence (Q28522 17-600 limits assumed): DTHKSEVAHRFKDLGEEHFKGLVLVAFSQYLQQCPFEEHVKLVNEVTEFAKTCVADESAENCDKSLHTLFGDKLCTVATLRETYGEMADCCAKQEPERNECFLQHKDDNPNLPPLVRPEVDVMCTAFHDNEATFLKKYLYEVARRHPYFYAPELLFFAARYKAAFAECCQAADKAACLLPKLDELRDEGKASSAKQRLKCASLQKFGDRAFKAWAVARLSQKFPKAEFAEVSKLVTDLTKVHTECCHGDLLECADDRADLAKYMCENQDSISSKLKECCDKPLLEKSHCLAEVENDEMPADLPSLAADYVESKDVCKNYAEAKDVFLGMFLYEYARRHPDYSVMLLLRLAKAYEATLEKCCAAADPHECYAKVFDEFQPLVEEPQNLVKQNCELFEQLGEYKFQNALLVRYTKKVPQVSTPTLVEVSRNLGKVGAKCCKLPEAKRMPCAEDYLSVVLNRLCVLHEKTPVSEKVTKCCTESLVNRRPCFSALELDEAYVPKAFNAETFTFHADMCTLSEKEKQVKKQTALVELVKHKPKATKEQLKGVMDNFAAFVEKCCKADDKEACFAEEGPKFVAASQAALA
# Method: as §1, §2
# mouse serum albumin [3] = molecular target: T5, mouse serum albumin (mouse, UniProt P07724 25-608); experiment: SPR, albumin immobilized
# T5 construct: also called MSA; MuSA
# T5 sequence (P07724 25-608 limits assumed): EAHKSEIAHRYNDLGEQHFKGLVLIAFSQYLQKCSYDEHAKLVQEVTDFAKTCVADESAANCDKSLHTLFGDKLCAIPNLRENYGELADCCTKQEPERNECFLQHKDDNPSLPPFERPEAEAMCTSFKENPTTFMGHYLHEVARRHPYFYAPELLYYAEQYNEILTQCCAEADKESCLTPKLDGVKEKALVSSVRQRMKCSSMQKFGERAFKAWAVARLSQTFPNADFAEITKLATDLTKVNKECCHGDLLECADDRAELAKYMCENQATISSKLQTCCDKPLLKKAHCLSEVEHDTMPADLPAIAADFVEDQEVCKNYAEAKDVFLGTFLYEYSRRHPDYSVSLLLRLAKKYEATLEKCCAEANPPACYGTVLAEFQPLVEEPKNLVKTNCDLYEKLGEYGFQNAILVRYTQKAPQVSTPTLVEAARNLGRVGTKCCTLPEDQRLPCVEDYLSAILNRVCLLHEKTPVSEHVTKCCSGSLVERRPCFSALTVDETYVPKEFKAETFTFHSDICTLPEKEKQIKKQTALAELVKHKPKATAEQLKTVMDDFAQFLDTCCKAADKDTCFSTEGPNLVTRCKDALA
# Method: as §1, §2
# cynomolgus serum albumin = molecular target: T6, cynomolgus serum albumin (cynomolgus, UniProt A2V9Z4 25-608); experiment: SPR, albumin immobilized;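 note: biacore CM5 surface plasmon resonance with serum albumin coupled to the chip, 3 min association then 6-10 min dissociation, rates from a 1:1 model fit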
# T6 construct: also called cynoSA; CySA
# T6 sequence (A2V9Z4 25-608 limits assumed): as the sequence (Q28522 17-600 limits assumed) above
# Method: as §1, §2
# rat serum albumin = molecular target: T7, rat serum albumin (rat, UniProt P02770 25-608); experiment: SPR, albumin immobilized;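 note: biacore CM5 surface plasmon resonance with serum albumin coupled to the chip, 3 min association then 6-10 min dissociation, rates from a 1:1 model fit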
# T7 construct: also called Rat SA; RSA
# T7 sequence (P02770 25-608 limits assumed): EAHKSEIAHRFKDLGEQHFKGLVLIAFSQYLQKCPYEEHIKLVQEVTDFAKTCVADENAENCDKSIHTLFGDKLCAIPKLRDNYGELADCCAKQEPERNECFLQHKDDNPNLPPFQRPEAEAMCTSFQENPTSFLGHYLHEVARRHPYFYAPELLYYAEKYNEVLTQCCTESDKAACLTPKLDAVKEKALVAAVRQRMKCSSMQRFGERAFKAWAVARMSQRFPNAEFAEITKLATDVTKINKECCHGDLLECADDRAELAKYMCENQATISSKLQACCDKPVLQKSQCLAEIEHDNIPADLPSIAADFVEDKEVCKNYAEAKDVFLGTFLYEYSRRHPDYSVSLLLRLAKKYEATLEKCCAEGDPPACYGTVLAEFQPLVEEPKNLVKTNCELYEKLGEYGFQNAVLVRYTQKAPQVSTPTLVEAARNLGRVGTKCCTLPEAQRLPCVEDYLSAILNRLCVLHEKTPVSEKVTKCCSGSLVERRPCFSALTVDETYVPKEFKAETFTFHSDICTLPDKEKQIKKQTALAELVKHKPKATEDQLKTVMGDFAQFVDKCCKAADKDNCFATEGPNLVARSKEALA
# Method: as §1, §2
# human serum albumin [4] = molecular target: T3, human serum albumin; experiment: SPR, albumin immobilized; remark: listed apart in the source
# Method: as §1
# rhesus serum albumin [5] = molecular target: T4, rhesus serum albumin; experiment: SPR, albumin immobilized; remark: listed apart in the source
# Method: as §1
# mouse serum albumin [6] = molecular target: T5, mouse serum albumin; experiment: SPR, albumin immobilized; remark: listed apart in the source
# Method: as §1
# human serum albumin [7] = molecular target: T3, human serum albumin; experiment: SPR, albumin immobilized, HBSP pH 7.4
# rhesus serum albumin [8] = molecular target: T4, rhesus serum albumin; experiment: SPR, albumin immobilized, HBSP pH 7.4
# mouse serum albumin [9] = molecular target: T5, mouse serum albumin; experiment: SPR, albumin immobilized, HBSP pH 7.4
# human serum albumin [10] = molecular target: T3, human serum albumin; experiment: SPR, albumin immobilized, HBSP pH 7.4; remark: listed apart in the source
# rhesus serum albumin [11] = molecular target: T4, rhesus serum albumin; experiment: SPR, albumin immobilized, HBSP pH 7.4; remark: listed apart in the source
# mouse serum albumin [12] = molecular target: T5, mouse serum albumin; experiment: SPR, albumin immobilized, HBSP pH 7.4; remark: listed apart in the source
# human PCSK9 = molecular target: T8, human PCSK9 (human, UniProt Q8NBP7 31-692); experiment: SPR, dual injection on immobilized albumin
# T8 construct: also called hPCSK9; huPCSK9
# human serum albumin [13] = molecular target: T3, human serum albumin; experiment: SPR, albumin immobilized, acetate pH 5.5
# rhesus serum albumin [14] = molecular target: T4, rhesus serum albumin; experiment: SPR, albumin immobilized, acetate pH 5.5
# mouse serum albumin [15] = molecular target: T5, mouse serum albumin; experiment: SPR, albumin immobilized, acetate pH 5.5
# human serum albumin [16] = molecular target: T3, human serum albumin; experiment: SPR, albumin immobilized, acetate pH 7.4
# rhesus serum albumin [17] = molecular target: T4, rhesus serum albumin; experiment: SPR, albumin immobilized, acetate pH 7.4
# mouse serum albumin [18] = molecular target: T5, mouse serum albumin; experiment: SPR, albumin immobilized, acetate pH 7.4
# human serum albumin [19] = molecular target: T3, human serum albumin; experiment: SPR, albumin immobilized, acetate pH 5.5; remark: listed apart in the source
# rhesus serum albumin [20] = molecular target: T4, rhesus serum albumin; experiment: SPR, albumin immobilized, acetate pH 5.5; remark: listed apart in the source
# mouse serum albumin [21] = molecular target: T5, mouse serum albumin; experiment: SPR, albumin immobilized, acetate pH 5.5; remark: listed apart in the source
# mouse serum albumin [22] = molecular target: T5, mouse serum albumin; experiment: SPR, albumin immobilized, acetate pH 7.4; acetate pH 7.4, MuSA
# human serum albumin [23] = molecular target: T3, human serum albumin; experiment: direct binding ELISA on coated HSA, mono-Adnectin (column HSA EC50 (nM))
binder,measurement,setting,value
B1,binding result,domain I of HSA,no binding
same,binding result,domain III of HSA,no binding
same,Kd,human serum albumin [1],3.2 nM
same,koff,human serum albumin [1],0.000185 s⁻¹
same,kon,human serum albumin [1],61000 M⁻¹ s⁻¹
same,Kd,rhesus serum albumin [2],3.4 nM
same,koff,rhesus serum albumin [2],0.00024 s⁻¹
same,kon,rhesus serum albumin [2],73900 M⁻¹ s⁻¹
same,Kd,mouse serum albumin [3],2.4 nM
same,koff,mouse serum albumin [3],0.000531 s⁻¹
same,kon,mouse serum albumin [3],219000 M⁻¹ s⁻¹
same,Kd,cynomolgus serum albumin,3.2 nM
same,koff,cynomolgus serum albumin,0.000229 s⁻¹
same,kon,cynomolgus serum albumin,73700 M⁻¹ s⁻¹
same,Kd,rat serum albumin,12.8 nM
same,koff,rat serum albumin,0.00126 s⁻¹
same,kon,rat serum albumin,99700 M⁻¹ s⁻¹
same,Kd,human serum albumin [4],12.3 nM
same,koff,human serum albumin [4],0.000213 s⁻¹
same,kon,human serum albumin [4],17400 M⁻¹ s⁻¹
same,Kd,rhesus serum albumin [5],14.5 nM
same,koff,rhesus serum albumin [5],0.000283 s⁻¹
same,kon,rhesus serum albumin [5],19500 M⁻¹ s⁻¹
same,Kd,mouse serum albumin [6],3.6 nM
same,koff,mouse serum albumin [6],0.000242 s⁻¹
same,kon,mouse serum albumin [6],68400 M⁻¹ s⁻¹
same,Kd,human serum albumin [7],10.6 nM
same,koff,human serum albumin [7],0.000219 s⁻¹
same,kon,human serum albumin [7],20700 M⁻¹ s⁻¹
same,Kd,rhesus serum albumin [8],12.7 nM
same,koff,rhesus serum albumin [8],0.000276 s⁻¹
same,kon,rhesus serum albumin [8],21800 M⁻¹ s⁻¹
same,Kd,mouse serum albumin [9],3.43 nM
same,koff,mouse serum albumin [9],0.000272 s⁻¹
same,kon,mouse serum albumin [9],79100 M⁻¹ s⁻¹
same,Kd,human serum albumin [10],10.7 nM
same,koff,human serum albumin [10],0.000192 s⁻¹
same,kon,human serum albumin [10],17900 M⁻¹ s⁻¹
same,Kd,rhesus serum albumin [11],11.4 nM
same,koff,rhesus serum albumin [11],0.000267 s⁻¹
same,kon,rhesus serum albumin [11],23500 M⁻¹ s⁻¹
same,Kd,mouse serum albumin [12],3.3 nM
same,koff,mouse serum albumin [12],0.000262 s⁻¹
same,kon,mouse serum albumin [12],79600 M⁻¹ s⁻¹
same,binding result,human PCSK9,no binding
same,Kd,human serum albumin [13],4.64 nM
same,koff,human serum albumin [13],0.000326 s⁻¹
same,kon,human serum albumin [13],70400 M⁻¹ s⁻¹
same,Kd,rhesus serum albumin [14],12 nM
same,koff,rhesus serum albumin [14],0.000584 s⁻¹
same,kon,rhesus serum albumin [14],48500 M⁻¹ s⁻¹
same,Kd,mouse serum albumin [15],14.9 nM
same,koff,mouse serum albumin [15],0.00125 s⁻¹
same,kon,mouse serum albumin [15],84000 M⁻¹ s⁻¹
same,Kd,human serum albumin [16],9.74 nM
same,koff,human serum albumin [16],0.000272 s⁻¹
same,kon,human serum albumin [16],28000 M⁻¹ s⁻¹
same,Kd,rhesus serum albumin [17],11.8 nM
same,koff,rhesus serum albumin [17],0.000328 s⁻¹
same,kon,rhesus serum albumin [17],27900 M⁻¹ s⁻¹
same,Kd,mouse serum albumin [18],3.48 nM
same,koff,mouse serum albumin [18],0.000268 s⁻¹
same,kon,mouse serum albumin [18],76800 M⁻¹ s⁻¹
same,Kd,human serum albumin [19],4.1 nM
same,koff,human serum albumin [19],0.000287 s⁻¹
same,kon,human serum albumin [19],70700 M⁻¹ s⁻¹
same,Kd,rhesus serum albumin [20],11.2 nM
same,koff,rhesus serum albumin [20],0.000503 s⁻¹
same,kon,rhesus serum albumin [20],44900 M⁻¹ s⁻¹
same,Kd,mouse serum albumin [21],14.6 nM
same,koff,mouse serum albumin [21],0.00113 s⁻¹
same,kon,mouse serum albumin [21],77000 M⁻¹ s⁻¹
same,kon,mouse serum albumin [22],~76800 M⁻¹ s⁻¹
same,EC50,human serum albumin [23],20 nM
